Results as given in patent US20120316113A1, “FGF BASED FIBRIN BINDING PEPTIDES” (Baxter Healthcare S.A., priority 2011, published 2012).
Entries after “also recorded” stand apart in the source; their conditions may differ. Ends that are not written are not given here.

How the values were obtained:
fibrinogen [1] = molecular target: T1, fibrinogen (Homo sapiens, UniProt P02671+P02675+P02679); assay: Fibrinogen binding assay by ELISA; conditions: plate coated with 1 mg/ml fibrinogen, various concentrations, anti-His6-peroxidase detection
T1 sequence (P02671 20-629 limits assumed): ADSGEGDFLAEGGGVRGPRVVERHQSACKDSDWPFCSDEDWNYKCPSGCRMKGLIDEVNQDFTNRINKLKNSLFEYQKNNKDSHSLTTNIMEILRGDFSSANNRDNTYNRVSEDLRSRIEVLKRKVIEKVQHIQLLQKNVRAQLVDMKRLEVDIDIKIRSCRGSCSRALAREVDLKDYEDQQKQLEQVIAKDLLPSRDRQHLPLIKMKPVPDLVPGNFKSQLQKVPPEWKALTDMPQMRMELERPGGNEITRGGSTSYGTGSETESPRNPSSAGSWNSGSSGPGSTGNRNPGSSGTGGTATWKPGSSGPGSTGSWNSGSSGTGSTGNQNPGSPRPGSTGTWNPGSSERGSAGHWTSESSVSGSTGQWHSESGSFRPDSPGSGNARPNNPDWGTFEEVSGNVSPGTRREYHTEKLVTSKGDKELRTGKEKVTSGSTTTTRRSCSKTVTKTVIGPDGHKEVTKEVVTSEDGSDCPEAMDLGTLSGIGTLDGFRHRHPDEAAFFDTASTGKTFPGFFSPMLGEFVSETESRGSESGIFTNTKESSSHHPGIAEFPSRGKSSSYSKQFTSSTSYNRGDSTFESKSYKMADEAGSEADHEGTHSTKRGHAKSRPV
T1 sequence (P02675 31-491): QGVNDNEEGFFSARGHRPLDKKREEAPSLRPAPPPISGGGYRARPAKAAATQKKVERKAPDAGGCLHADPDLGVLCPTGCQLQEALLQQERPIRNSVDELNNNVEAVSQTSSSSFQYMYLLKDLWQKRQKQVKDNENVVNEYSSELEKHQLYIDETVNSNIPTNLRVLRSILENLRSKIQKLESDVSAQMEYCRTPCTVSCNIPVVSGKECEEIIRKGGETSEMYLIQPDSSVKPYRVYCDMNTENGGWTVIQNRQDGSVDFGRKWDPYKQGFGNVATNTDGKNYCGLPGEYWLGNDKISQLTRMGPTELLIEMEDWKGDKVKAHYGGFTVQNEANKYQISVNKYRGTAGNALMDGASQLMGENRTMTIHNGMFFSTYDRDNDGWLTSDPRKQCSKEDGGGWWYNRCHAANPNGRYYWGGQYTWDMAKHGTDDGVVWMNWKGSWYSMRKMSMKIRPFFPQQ
T1 sequence (P02679 27-433 limits assumed): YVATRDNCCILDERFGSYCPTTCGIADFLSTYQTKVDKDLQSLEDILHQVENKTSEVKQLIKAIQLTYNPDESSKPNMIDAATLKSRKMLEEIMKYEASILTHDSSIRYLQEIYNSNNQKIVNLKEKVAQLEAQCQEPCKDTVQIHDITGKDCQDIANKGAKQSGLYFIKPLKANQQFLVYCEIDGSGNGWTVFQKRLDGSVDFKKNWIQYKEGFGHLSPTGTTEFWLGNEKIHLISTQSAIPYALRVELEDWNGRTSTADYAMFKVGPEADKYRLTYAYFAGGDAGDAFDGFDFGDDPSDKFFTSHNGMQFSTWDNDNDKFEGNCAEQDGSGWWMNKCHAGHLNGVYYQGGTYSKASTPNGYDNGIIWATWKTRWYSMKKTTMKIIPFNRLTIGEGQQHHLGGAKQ
Method: (§1) A polystyrene 96-well plate (Nunc® Maxisorp EUSA-plates) was coated with 1 mg/ml fibrinogen (Tisseel®, Baxter AG, Vienna) overnight at 4° C. and then blocked with blocking solution (PBS+1% BSA) for 2 hours at room temperature CRT). After washing three times with PBS, purified peptides were added in various dilutions to the plate and incubated for 1 hour at RT. After the three times washing with PBS, a monoclonal anti-His6-peroxidase antibody (Sigma-Aldrich, Vienna), diluted in PBS+0.1% Tween (Sigma-Aldrich, Vienna) was added and incubated for 1 hour at RT. Finally, the plate was washed three times with PBS again and wells were incubated with o-phenylenediaminehydrochlorid substrate. Absorbance was measured at 492 nm and 620 nm. For fibrin binding analysis, the plate was first coated with fibrinogen overnight at 4° C. and then incubated with 10 I.U./ml thrombin (Tisseel, Baxter AG, Vienna) for 30 minutes at 37° C. The following procedure was the same as described above. For the surface plasmon resonance (SPR) method fibrinogen was coupled to a gold sensor chip (10% COOH—(PEG)6-C11—SH, 90% OH(PEG)3-C11—SH; Reichert Analytical, NY, USA) by amine chemistry using EDC (1-ethyl-3-[3-dimethylaminopropyl]carbodiimide hydrochloride) and NHS (N-hydroxysuccinimide) (Pierce, Ill., USA). Uncoupled sites on the gold sensor chip were blocked with 1 M ethanolamine pH 8.5 (Sigma-Aldrich, MO, USA). The purified recombinant proteins and peptides were passed over the chip's surface at a flow rate of 0.4 ml/min to 0.8 ml/min and allowed to interact. The signals were detected and recorded at the Reichert SR7000 Surface Plasmon Resonance Analytical Instrument (Reichert Analytical, NY, USA). After each measurement the sensor chip surface was regenerated by a pulse with 100 mM phosphoric acid (Mallinckrodt Chemicals, NJ, USA) after each application of the samples. Association and dissociation signals were fitted to one association curve using a prism software calculation program.
Purified, proteins and peptides in different concentrations were used for testing the binding affinity to fibrinogen and fibrin (FIG. 5).

[2] = system: mouse myoblast cell line (C2C12); assay: Biological activity: viability (MTT) assay of mouse myoblast C2C12 cells; format: cell-based
Method: A moose myoblast cell line (C2C12; ECACC (Sigma-Aldrich, Vienna)) was grown in Dulbecco's Modified Eagle Medium (DMEM) with 10% fetal calf serum (FCS). At 50-60% confluence cells were trypsinized and transferred to a 24-well plate (1×10^4/well).
Following a 48-hour-culture period at 37° C., cells were washed with DMEM only and then covered with medium (DMEM+1% FCS) containing various concentrations of hFGF-2 or hFGF-2 peptides. After 48 hours number of viable cells was determined by adding 3-(4,5-dimethylthiazol-2-yl)-2,5-diphenyltetrazolium bromide (MTT, Sigma-Aldrich, Vienna) as previously described {M05}.

fibrinogen [3] = molecular target: T1, fibrinogen; assay: Surface plasmon resonance (SPR) binding to fibrinogen coupled to gold sensor chip; conditions: fibrinogen on sensor chip; fitted association curves
Method: as §1

[4] = 146 amino acid variant; cited from earlier work

Substance	binding affinity to fibrinogen (fibrinogen [1])	activity retained relative to the full length protein ([2]; relative to full length hFGF-2)	binding signal (SPR) (fibrinogen [3])	isoelectric point [4]	proliferative activity / cell growth effect ([2]; 48 hours, DMEM+1% FCS, MTT)	concentration dependence of biological activity ([2]; various concentrations)
GVCANRYLAMKEDGRLLASKCVTDECFFFERLESNNYNTYRSR (GVCANRYLAMKEDGRLLASKCVTDECFFFERLESNNYNTYRSR; not fully specified (C-terminus); cysteine pairing not given here) [pep2, recombinant truncated hFGF-2 peptide (48 aa) with C-terminal 6x HIS-tag, ~5.2 kD]	high affinity	approximately 50%	weak and short binding signals			
Human Fibroblast growth factor-2 [hFGF-2, reference compound]	high affinity			9.6	highest proliferative activity; also recorded: highest cell growth effect	concentration dependent biological activity
EERGVVSIKGVCANRYLAMKEDGRLLASKCVTDECFFFERLESNNYNTYRSR (EERGVVSIKGVCANRYLAMKEDGRLLASKCVTDECFFFERLESNNYNTYRSR; not fully specified (C-terminus); cysteine pairing not given here) [pep1, recombinant truncated hFGF-2 peptide (68 aa) with C-terminal 6x HIS-tag, expressed as GST fusion in E. coli and cleaved]	high affinity		weak and short binding signals			
